Results taken from the RNAGym collection of RNA variant scans (doi:10.7554/elife.90254).

B1: OR4K15 (parent)
chain: GUUAACGGUCAUAGGCCAUGGAAACUAGGAGCACCAUUUCGCUGCCAGUGAAGAAAUGAACAAAGAAAAUCUGGGCCAGGCAGGCAUCAAAAGAAAUAGUCUUGCGCUCAACCAGAAAGUCUGUAAUCAUUUUAAGGGUA

Variants of: B1
Experiment: self-cleavage, relative activity (ratio to wild type); higher = more cleavage; in vitro, sequencing; the parent is a self-cleaving ribozyme

Q: Which self-cleavage does the source give for A27G A135G here?
A: 0.84

Q: With G7U A68G as the variant, how does the self-cleavage read?
A: 2.39

Q: For A24U G28C, which self-cleavage is on record?
A: 1.02

Q: With G83A U122A as the variant, how does the self-cleavage read?
A: 1.13

Q: With G79A A91C as the variant, how does the self-cleavage read?
A: 0.09

Q: Which self-cleavage does the source give for A55G U127C here?
A: 0.82

Q: Which self-cleavage does the source give for A56G U102C here?
A: 1.67

Q: With A114U A125U as the variant, how does the self-cleavage read?
A: 0.08

Q: Which self-cleavage does the source give for U9C A110C here?
A: 0.45

Q: For C16U A22U, which self-cleavage is on record?
A: 1.32

Q: With A63G U72A as the variant, how does the self-cleavage read?
A: 0.33

Q: For G41A A54U, which self-cleavage is on record?
A: 1.03

Q: For A67G G80A, which self-cleavage is on record?
A: 0.04

Q: Which self-cleavage does the source give for A11U A54G here?
A: 0

Q: Which self-cleavage does the source give for A52U A55U here?
A: 1.62

Q: With A18C U43C as the variant, how does the self-cleavage read?
A: 1.44

Q: For A92G U139C, which self-cleavage is on record?
A: 1.75

Q: For A62G, which self-cleavage is on record?
A: 1.23

Q: With A62U as the variant, how does the self-cleavage read?
A: 1.53

Q: For G21C A118G, which self-cleavage is on record?
A: 1.14

Q: For U127A A135U, which self-cleavage is on record?
A: 2.12

Q: Which self-cleavage does the source give for U39C A52U here?
A: 2.16

Q: Which self-cleavage does the source give for U19A U39C here?
A: 0.99

Q: For G29A A92G, which self-cleavage is on record?
A: 1.16

Q: With A89G A140G as the variant, how does the self-cleavage read?
A: 1.55

Q: With A55G A63G as the variant, how does the self-cleavage read?
A: 1.43

Q: Which self-cleavage does the source give for U87A A135G here?
A: 2.03

Q: With U49C A96G as the variant, how does the self-cleavage read?
A: 1

Q: With A56G C88U as the variant, how does the self-cleavage read?
A: 1.72

Q: With A27G U131G as the variant, how does the self-cleavage read?
A: 1.09

Q: With G31A A52G as the variant, how does the self-cleavage read?
A: 2.05

Q: With G53A U100C as the variant, how does the self-cleavage read?
A: 2.52

Q: For U19A U103C, which self-cleavage is on record?
A: 0.75

Q: Which self-cleavage does the source give for A36G A55G here?
A: 1.18

Q: With U43A A56C as the variant, how does the self-cleavage read?
A: 0.8

Q: With A24U A95G as the variant, how does the self-cleavage read?
A: 1.95

Q: With G15A U131G as the variant, how does the self-cleavage read?
A: 1.44

Q: Which self-cleavage does the source give for G7A A54G here?
A: 0.81

Q: With A30G U70C as the variant, how does the self-cleavage read?
A: 0.75

Q: For A55G G136A, which self-cleavage is on record?
A: 1.36

Q: Which self-cleavage does the source give for A11U A33G here?
A: 0.98

Q: For A5U A95G, which self-cleavage is on record?
A: 1.59

Q: With A96U A118G as the variant, how does the self-cleavage read?
A: 1.17

Q: For A22G A66U, which self-cleavage is on record?
A: 1.41

Q: For U70C A140G, which self-cleavage is on record?
A: 0.38

Q: Which self-cleavage does the source give for G15A A62G here?
A: 0.1

Q: Which self-cleavage does the source give for A110G U139A here?
A: 0.05

Q: Which self-cleavage does the source give for U19C G75U here?
A: 0.08

Q: Which self-cleavage does the source give for U2C A96G here?
A: 1.1

Q: For U72C A126U, which self-cleavage is on record?
A: 0.4

Q: With A68G A69C as the variant, how does the self-cleavage read?
A: 0.94

Q: With U100C C107G as the variant, how does the self-cleavage read?
A: 0.01

Q: For C32U A54G, which self-cleavage is on record?
A: 1.37

Q: For U9C A126G, which self-cleavage is on record?
A: 1.19

Q: Which self-cleavage does the source give for A51G G79U here?
A: 0.1

Q: Which self-cleavage does the source give for A22C A69U here?
A: 1.74

Q: With A52C A126G as the variant, how does the self-cleavage read?
A: 0.42

Q: Which self-cleavage does the source give for U12C U108C here?
A: 0.03

Q: With A36U U122A as the variant, how does the self-cleavage read?
A: 1.78

Q: With U43A U103C as the variant, how does the self-cleavage read?
A: 1.1

Q: With A82G U127C as the variant, how does the self-cleavage read?
A: 0.22

Q: For A89G A129G, which self-cleavage is on record?
A: 1.06

Q: For U26A A66C, which self-cleavage is on record?
A: 0.9

Q: For A47U G75A, which self-cleavage is on record?
A: 0.14

Q: Which self-cleavage does the source give for U102A A111G here?
A: 0.03

Q: Which self-cleavage does the source give for U102A U130C here?
A: 0.43

Q: With U87A U100G as the variant, how does the self-cleavage read?
A: 2.13

Q: For A78C, which self-cleavage is on record?
A: 0.18

Q: With C71A U97C as the variant, how does the self-cleavage read?
A: 0.18

Q: With G84A A135G as the variant, how does the self-cleavage read?
A: 2.3

Q: With A82G A90G as the variant, how does the self-cleavage read?
A: 0.31

Q: For A68G U132A, which self-cleavage is on record?
A: 1.27

Q: With G75A A116G as the variant, how does the self-cleavage read?
A: 0.06

Q: For U37C A126G, which self-cleavage is on record?
A: 1.31

Q: Which self-cleavage does the source give for A33G U122C here?
A: 0.64

Q: Which self-cleavage does the source give for A60C U122C here?
A: 1.62

Q: Which self-cleavage does the source give for A86G A95G here?
A: 1.72

Q: With A33U U37C as the variant, how does the self-cleavage read?
A: 1.51

Q: For A33G A67G, which self-cleavage is on record?
A: 1.06

Q: For A67U U100G, which self-cleavage is on record?
A: 1.34

Q: Which self-cleavage does the source give for U108C U130G here?
A: 0

Q: Which self-cleavage does the source give for U2A A24G here?
A: 0.54

Q: For U19C G28A, which self-cleavage is on record?
A: 1.41

Q: Which self-cleavage does the source give for A63C G74U here?
A: 0.15

Q: Which self-cleavage does the source give for C17A here?
A: 1.46

Q: With U12C A135G as the variant, how does the self-cleavage read?
A: 1.25

Q: Which self-cleavage does the source give for A59G A98G here?
A: 0.67

Q: With A52G A94G as the variant, how does the self-cleavage read?
A: 1.99

Q: For G53A A78U, which self-cleavage is on record?
A: 0.52

Q: With A92G G123A as the variant, how does the self-cleavage read?
A: 2.51

Q: Which self-cleavage does the source give for A63U A82G here?
A: 0.36

Q: For A23G A68G, which self-cleavage is on record?
A: 1.29

Q: With A27G U37C as the variant, how does the self-cleavage read?
A: 1.27

Q: For U103C A111G, which self-cleavage is on record?
A: 0.02

Q: Which self-cleavage does the source give for U2A U3A here?
A: 1.16

Q: Which self-cleavage does the source give for U37C G83A here?
A: 2.15

Q: For U9A A56G, which self-cleavage is on record?
A: 1.3

Q: For A111G C128A, which self-cleavage is on record?
A: 0.01

Q: With U39A A111G as the variant, how does the self-cleavage read?
A: 0.02

Q: For A55U A116G, which self-cleavage is on record?
A: 0.88

Q: For U43G A69G, which self-cleavage is on record?
A: 2.1

Q: With U9A A36G as the variant, how does the self-cleavage read?
A: 1.59

Q: With G20U A68G as the variant, how does the self-cleavage read?
A: 1.59

Q: Which self-cleavage does the source give for A62C U130C here?
A: 0.71

Q: Which self-cleavage does the source give for G75A A92G here?
A: 0.08

Q: With A66G U120A as the variant, how does the self-cleavage read?
A: 1.73

Q: For G75A C81U, which self-cleavage is on record?
A: 0.21

Q: Which self-cleavage does the source give for U38C A96G here?
A: 1.51

Q: For U12C U124C, which self-cleavage is on record?
A: 0.67

Q: With C42U A94G as the variant, how does the self-cleavage read?
A: 2.27

Q: With A92G A114G as the variant, how does the self-cleavage read?
A: 0.29

Q: For A82G U132C, which self-cleavage is on record?
A: 0.5

Q: Which self-cleavage does the source give for A11G U108C here?
A: 0.01

Q: Which self-cleavage does the source give for A30G A63G here?
A: 1.57

Q: Which self-cleavage does the source give for U57A A125G here?
A: 0.52

Q: For A92G A125C, which self-cleavage is on record?
A: 1.44

Q: With A94C A116U as the variant, how does the self-cleavage read?
A: 0.18

Q: For A54G A60G, which self-cleavage is on record?
A: 1.02

Q: With U39A A66G as the variant, how does the self-cleavage read?
A: 1.87

Q: Which self-cleavage does the source give for U38C U100C here?
A: 2.28

Q: For U26C A27C, which self-cleavage is on record?
A: 2.1

Q: With U3C A89G as the variant, how does the self-cleavage read?
A: 0.99

Q: Which self-cleavage does the source give for U19C A140G here?
A: 0.62

Q: For G20A A52U, which self-cleavage is on record?
A: 1.8

Q: For G20A A62G, which self-cleavage is on record?
A: 1.45

Q: For U72C G79A, which self-cleavage is on record?
A: 0.32

Q: Which self-cleavage does the source give for A55U A82U here?
A: 0.28

Q: For A24U C105U, which self-cleavage is on record?
A: 0.17

Q: Which self-cleavage does the source give for A55G A56G here?
A: 1.31

Q: For A78C A86U, which self-cleavage is on record?
A: 0.19

Q: For A5G A22U, which self-cleavage is on record?
A: 1.01

Q: For U39C G115U, which self-cleavage is on record?
A: 0.04

Q: Which self-cleavage does the source give for A47U A60U here?
A: 0.75

Q: With A56G A98G as the variant, how does the self-cleavage read?
A: 0.57

Q: Which self-cleavage does the source give for A89G U127C here?
A: 1.03

Q: With A63G U70G as the variant, how does the self-cleavage read?
A: 1.56

Q: Which self-cleavage does the source give for A5G A64U here?
A: 1.85

Q: With A59G as the variant, how does the self-cleavage read?
A: 1.06

Q: Which self-cleavage does the source give for A33G A129U here?
A: 0.39

Q: With G1A A33G as the variant, how does the self-cleavage read?
A: 0.78

Q: Which self-cleavage does the source give for A18U U43C here?
A: 1.42

Q: For G20U A67G, which self-cleavage is on record?
A: 1.24

Q: With A66G A118G as the variant, how does the self-cleavage read?
A: 2.17

Q: For U127A U132C, which self-cleavage is on record?
A: 1.55

Q: With C88U A111G as the variant, how does the self-cleavage read?
A: 0.04

Q: With A22U A94U as the variant, how does the self-cleavage read?
A: 1.75

Q: With U122C U139C as the variant, how does the self-cleavage read?
A: 0.78

Q: With A52G A62U as the variant, how does the self-cleavage read?
A: 1.2

Q: Which self-cleavage does the source give for A60C U100A here?
A: 0.68

Q: Which self-cleavage does the source give for U37A A59G here?
A: 1.78

Q: For A33U U108C, which self-cleavage is on record?
A: 0.05

Q: Which self-cleavage does the source give for A51C A59G here?
A: 1.73

Q: With U43G A140G as the variant, how does the self-cleavage read?
A: 2.62

Q: For A47U U127A, which self-cleavage is on record?
A: 0.24

Q: Which self-cleavage does the source give for A68G A134G here?
A: 1.5

Q: With A111U as the variant, how does the self-cleavage read?
A: 0.08

Q: With U37C U132A as the variant, how does the self-cleavage read?
A: 1.34

Q: With U37C A67G as the variant, how does the self-cleavage read?
A: 0.68

Q: Which self-cleavage does the source give for A64G A125U here?
A: 2.92

Q: For A18U U139C, which self-cleavage is on record?
A: 1.45

Q: For A27G A59G, which self-cleavage is on record?
A: 1.03

Q: Which self-cleavage does the source give for A24C U72A here?
A: 0.28

Q: Which self-cleavage does the source give for A54G A95U here?
A: 1.53

Q: For A22G U108C, which self-cleavage is on record?
A: 0.03

Q: For A62G G106A, which self-cleavage is on record?
A: 0.01

Q: With A78G C109A as the variant, how does the self-cleavage read?
A: 0.05

Q: Which self-cleavage does the source give for A33G U70A here?
A: 0.5
